From the nanobody polyreactivity screen of Harvey et al. (2022)

Test: yeast display, Sf9 membrane polyspecificity reagent, FACS + sequencing; frameworks hold sequencing errors
Outline: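 After 36–48 hours of galactose induction, yeast (Saccharomyces cerevisiae BJ5465) displaying a synthetic nanobody library were stained at 4 °C for 1 hour with 10% biotinylated, detergent-solubilized Sf9 membrane reagent. Streptavidin microbeads enriched the stained cells before FACS sorting into low and high (top ~1%) gates on anti-HA and streptavidin fluorescence. Each clone's polyreactivity label reflects its gate of origin.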

Sequence	polyreactivity (PSR sort gate)
QVQLVESGGGLVQAGGSLRLSCAASGFTFNYSAKGWYRQAPGKEREFVAAISRGGGRTYYADSVKGRFTISRDNANNTVYLQMNSLKPEATAVYSCAAQSVPYAYPLASYDYWGQGTQVTVSS	high polyreactivity
QVQLVESGGGLVQAGGSLRLSCAASGSTLTRHAMGWYRQAPGKERELVAAITSGGRTKYADSVKGRFTISRDNAKYTVYLHMNSLKPEDTAVYYCAKGGPPGQRGYDYWGQGTQVTVSS	high polyreactivity
QVQLVESGGGLVQAGGSLRLSCAASGSIFVPYAMGWYRQAPGKERELVAAISSGGSTNYADSVKGRFTISRDNAKNTVYLQMNSLKPEDTAVYYCNADYSVYIIADEYDYWGQGTQVTVSS	low polyreactivity
QVQLVESGGGLVQAGGSLRLSCAASGLIFVGNAMGWYRQAPGKERELVAAISSRGGRTYYADSVKGRFTISRDNAKNTVYLQMNSLKPEDTAVYYCNAAKSQWGFEYWGQGTQVTVSS	high polyreactivity
QVQLVESGGGLVQTGGSLRVSCAASGLIFSRSAMGWYRQAPGKVRELVAAISSRGGSTYYADSVKGRFTISRDNAKNTVYLQMKSLIPEDTAVYFCDASRSYVHPVIGYGYWGQGTQVTVSS	high polyreactivity
QVQLVESGGGLVQAGGSLRLICAASGSIFHIYMGWYRQAPGKEMEVVASISYRGGTTYYADSVKGRFTISRDNAKNSVYFQMNSLKPEDTAVYYCNVDRYFYHYGRYGHMDYWGQATQVTVSS	low polyreactivity
QVQLVESGGGLVQAGGSLRLSCAASGSIFRYYAMGWYRQAPGQERELVAAISRRGSSTYYADSVKGRFTISRDNAKNTVYLQLNSLKPEDTAVYYCAARSRHSGLTQPTLDYWGQGTQVTVSS	high polyreactivity
QVQLVESGGGLVQAGGSLRLSCAASGLTFYGYGMGWYRQAPGKERELVASITSGGNTYYADSVKGRFTISRDNAKNTVYLRMNSLKPEDTAVYYCAVTAIALYYSSGYYWGQGTQVTVSS	low polyreactivity
QDQLVESGGGLVQAGCSLRLSCAASGSTFHLNAMGWYRQAPGKERELVAAITWSGGSTYYADSVKGRFTISRDNAKNTVYLQMNSLKPEDTAVYYCNAGLGKFPVKGGRRYRLDYWGQGTQVTVSS	low polyreactivity
QVQHEESGGGLVQAGGSLRLSCAASGFTFFSNAMGWFRQAPGKERELVAAITTNGGSTYYADSVKGRFTISRDNAKNTVYLQMYSLKPEDTAGYYCAAEYGITDYDYWGQGTQVTVSS	low polyreactivity
QVQLVESGGGLVQAGGSIRLICAASGPIFSSYAIGCYRQAPGKERELVAAITSSGTSTYYADSVKGRFTISRDYAKNTVYVQMTSLKPEDTAVYYCAARRARTGDYWGQGTQVTLSS	high polyreactivity
QVQLVESGGGLVQAGGSLRLSCAASGSTFEAYAMGWYRQAPGKERELVAAINFTGGRTYYADSVKGRFTISRDNAKNTVYLQINSLKPEDTAVYYCAARKWGVPYIDNDYWGQGTQVTVSS	low polyreactivity
QVQLVESGGGLVQAGGSLRLSCAASGSTCERYAMGWSRQAPGKERELVAVISYRGTSTYYADSVKGRFTISRDNAKNTVYLQMNSLKAEDTAVYDCAAEPYRTVTAYRYSLYWYNYWGQGTQVTVSS	high polyreactivity
QVQLVESGGGLVQAGGSLRLSCAASGSIFGFYAMGWYRQAPGKERELVAAITSGDSTHYADSVKGRFTISRDNAKNTVYLQMNSLKPEDTAVYYCAASAPYRYYRSAYYYWGQGTQVTVSS	low polyreactivity
QVQLVESGGGLVQAGGSLRLSCPASGSISRQYAMGWYRQAPGKERELVAAITVRGGSTYYADSVKGRFTISRDNAKNTVYLQMNSLKPEDTAVYYCAKYTRYSASYDYWGQGTQVTVSS	high polyreactivity
QVQLVESGGGLVQAGGSLRLSCSASGITYGGNEMGWYRQAPGTESELVAGIDDGGSTNYADSVKGRFTISRDNAKNTVYLQMNSLKPEDTAVYYCAVQGHPPLGILPGFLFDYWGQGTQVTVSS	low polyreactivity
